Each block holds one substance with its values, some of them ahead of it.
Legend:
[1] = target: Mj-AMP1 (Mirabilis jalapa--Antimicrobial Protein 1) (Mirabilis jalapa)
[2] = target: Mj-AMP2 (Mirabilis jalapa--Antimicrobial Protein 2) (Mirabilis jalapa)

Relative antifungal activity (shown as % of control activity) after Chymotrypsin digestion (% of control activity) [1]: 12 | Relative antifungal activity (shown as % of control activity) after Chymotrypsin digestion (% of control activity) [2]: 50
Substance: Chymotrypsin (enzyme)

Relative antifungal activity (shown as % of control activity) after Pronase E digestion (% of control activity) [1]: 50 | Relative antifungal activity (shown as % of control activity) after Pronase E digestion (% of control activity) [2]: 25
Substance: Pronase E (enzyme)

Relative antifungal activity (shown as % of control activity) after Proteinase K digestion (% of control activity) [1]: 100 | Relative antifungal activity (shown as % of control activity) after Proteinase K digestion (% of control activity) [2]: 100
Substance: Proteinase K (from UniProt P06873) (enzyme)

Relative antifungal activity (shown as % of control activity) after Trypsin digestion (% of control activity) [1]: 75 | Relative antifungal activity (shown as % of control activity) after Trypsin digestion (% of control activity) [2]: 100
Substance: Trypsin (enzyme)

Source: patent US5689048
